From PMC3896610
Like-named read-outs stand apart in the source and are kept apart here.

Assays:
IgG1-K409R-CD20 (human) [1] = assay: analytical cation-exchange chromatography
IgG1-K409R-CD20 (human) [2] = assay: analytical cation-exchange chromatography; remark: listed apart in the source

% bsIgG1-EGFRxCD20 by CIEX (IgG1-K409R-CD20 (human) [1]): 95% | % bsIgG1-EGFRxCD20 by CIEX (IgG1-K409R-CD20 (human) [2]): 96.3%
B1: IgG1-F405L-EGFR (antibody, V domains shown)
VH: QVQLVESGGGVVQPGRSLRLSCAASGFTFSTYGMHWVRQAPGKGLEWVAVIWDDGSYKYYGDSVKGRFTISRDNSKNTLYLQMNSLRAEDTAVYYCARDGITMVRGVMKDYFDYWGQGTLVTVSS
VL: AIQLTQSPSSLSASVGDRVTITCRASQDISSALVWYQQKPGKAPKLLIYDASSLESGVPSRFSGSESGTDFTLTISSLQPEDFATYYCQQFNSYPLTFGGGTKVEIK
